Measured values from paper doi:10.1101/2024.10.14.618187, “Molecular basis of interchain disulfide-bond formation in BMP-9 and BMP-10” (bioRxiv, 2024).

B1: Pro-(X)-BMP-9 [human] / itself (parent)
chain: KPLQSWGRGSAGGNAHSPLGVPGGGLPEHTFNLKMFLENVKVDFLRSLNLSGVPSQDKTRVEPPQYMIDLYNRYTSDKSTTPASNIVRSFSMEDAISITATEDFPFQKHILLFNISIPRHEQITRAELRLYVSCQNHVDPSHDLKGSVVIYDVLDGTDAWDSATETKTFLVSQDIQDEGWETLEVSSAVKRWVRSDSTKSKNKLEVTVESHRKGCDTLDISVPPGSRNLPFFVVFSNDHSSGTKETRLELREMISHEQESVLKKLSKDGSTEAGESSHEEDTDGHVAAGSTLAIEGRSSGAGSHCQKTSLRVNFEDIGWDSWIIAPKEYEAYECKGGCFFPLADDVTPTKHAIVQTLVHLKFPTKVGKACCVPTKLSPISVLYKDDMGVPTLKYHYEGMSVAECGCR

Variants of: B1
Assay: SDS-PAGE densitometry after IMAC purification
Conditions: with itself

Going from KPLQSWGRGSAGGNAHSPLGVPGGGLPEHTFNLKMFLENVKVDFLRSLNLSGVPSQDKTRVEPPQYMIDLYNRYTSDKSTTPASNIVRSFSMEDAISITATEDFPFQKHILLFNISIPRHEQITRAELRLYVSCQNHVDPSHDLKGSVVIYDVLDGTDAWDSATETKTFLVSQDIQDEGWETLEVSSAVKRWVRSDSTKSKNKLEVTVESHRKGCDTLDISVPPGSRNLPFFVVFSNDHSSGTKETRLELREMISHEQESVLKKLSKDGSTEAGESSHEEDTDGHVAAGSTLAIEGRSSGAGSHCQKTSLRVNFEDIGWDSWIIAPKEYEAYECKGGCFFPLADDVTPTKHAIVQTLVHLKFPTKVSKACCVPTKLSPISVLYKDDMGVPTLKYHYEGMSVAECGCR [chain 1 G367S] to KPLQSWGRGSAGGNAHSPLGVPGGGLPEHTFNLKMFLENVKVDFLRSLNLSGVPSQDKTRVEPPQYMIDLYNRYTSDKSTTPASNIVRSFSMEDAISITATEDFPFQKHILLFNISIPRHEQITRAELRLYVSCQNHVDPSHDLKGSVVIYDVLDGTDAWDSATETKTFLVSQDIQDEGWETLEVSSAVKRWVRSDSTKSKNKLEVTVESHRKGCDTLDISVPPGSRNLPFFVVFSNDHSSGTKETRLELREMISHEQESVLKKLSKDGSTEAGESSHEEDTDGHVAAGSTLAIEGRSSGAGSHCQKTSLRVNFEDIGWDSWIIAPKEYEAYECRGGCFFPLADDVTPTKHAIVQTLVHLKFPTKVSKACCVPTKLSPISVLYKDDMGVPTLKYHYEGMSVAECGCR [chain 1 K335R G367S], the screen value rises from 1.29 to 3.24.

KPLQSWGRGSAGGNAHSPLGVPGGGLPEHTFNLKMFLENVKVDFLRSLNLSGVPSQDKTRVEPPQYMIDLYNRYTSDKSTTPASNIVRSFSMEDAISITATEDFPFQKHILLFNISIPRHEQITRAELRLYVSCQNHVDPSHDLKGSVVIYDVLDGTDAWDSATETKTFLVSQDIQDEGWETLEVSSAVKRWVRSDSTKSKNKLEVTVESHRKGCDTLDISVPPGSRNLPFFVVFSNDHSSGTKETRLELREMISHEQESVLKKLSKDGSTEAGESSHEEDTDGHVAAGSTLAIEGRSSGAGSHCQKTSLRVNFEDIGWDSWIIAPKEYEAYECRGGCFFPLADDVTPTKHAIVQTLVHLKFPTKVGKACCVPTKLSPISVLYKDDMGVPTLKYHYEGMSVAECGCR [chain 1 K335R] gave a screen value of 0.7.
